Experimental data: patent US20240241135A1 (SENBOLL BIOTECHNOLOGY, published 2024)

T1: recombinant human regenerating islet-derived protein 1α (REG1A) (human, UniProt P05451 23-166, limits assumed)
T1 construct: also called recombinant human REG1A; recombinant REG1A
T1 sequence (looked up): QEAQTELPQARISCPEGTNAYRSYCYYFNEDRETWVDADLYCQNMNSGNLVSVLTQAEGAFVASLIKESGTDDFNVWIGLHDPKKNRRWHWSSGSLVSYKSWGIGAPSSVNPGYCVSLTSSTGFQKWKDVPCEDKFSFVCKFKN


Tests used:
[1] = biological target: T1, recombinant human regenerating …; assay: sandwich ELISA; capture 12F12A10; REG1A 11.11 ng/mL
How it was run: (§1)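 Plates were coated overnight at 4 °C with the capture monoclonal antibody in PBS and blocked for 2 h at 37 °C, after which recombinant human REG1A in basic diluent (100 μL per well) was incubated for 1 h at 37 °C. Bound protein was detected with a horseradish peroxidase-based detection antibody system and TMB substrate for 15 min at 37 °C, and 0.2M sulfuric acid stopped the reaction. The OD value from this sandwich ELISA is a background-corrected absorbance. The reading at 620/630 nm was subtracted from the reading at 450 nm.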

[2] = biological target: T1, recombinant human regenerating …; assay: sandwich ELISA; capture 11D11B11; REG1A 3.70 ng/mL
How it was run: as §1

[3] = biological target: T1, recombinant human regenerating …; assay: sandwich ELISA; capture 4H8F1; REG1A 3.70 ng/mL
How it was run: as §1

[4] = biological target: T1, recombinant human regenerating …; assay: sandwich ELISA; capture 12F12A10; REG1A 33.33 ng/mL
How it was run: as §1

[5] = biological target: T1, recombinant human regenerating …; assay: sandwich ELISA; capture 12F12A10; REG1A 0 ng/mL (blank)
How it was run: as §1

[6] = biological target: T1, recombinant human regenerating …; assay: sandwich ELISA; capture 12F12A10; REG1A 1.23 ng/mL
How it was run: as §1

[7] = biological target: T1, recombinant human regenerating …; assay: sandwich ELISA; capture 11D11B11; REG1A 11.11 ng/mL
How it was run: as §1

[8] = biological target: T1, recombinant human regenerating …; assay: sandwich ELISA; capture 11D11B11; REG1A 0 ng/mL (blank)
How it was run: as §1

[9] = biological target: T1, recombinant human regenerating …; assay: sandwich ELISA; capture 21B11D2; REG1A 3.70 ng/mL
How it was run: as §1

[10] = biological target: T1, recombinant human regenerating …; assay: sandwich ELISA; capture 4H8F1; REG1A 11.11 ng/mL
How it was run: as §1

[11] = biological target: T1, recombinant human regenerating …; assay: sandwich ELISA; capture 25F3C4; REG1A 0 ng/mL (blank)
How it was run: as §1

[12] = biological target: T1, recombinant human regenerating …; assay: sandwich ELISA; capture 4H8F1; REG1A 0 ng/mL (blank)
How it was run: as §1

[13] = biological target: T1, recombinant human regenerating …; assay: sandwich ELISA; capture 11D11B11; REG1A 100.00 ng/mL
How it was run: as §1

[14] = biological target: T1, recombinant human regenerating …; assay: sandwich ELISA; capture 21B11D2; REG1A 33.33 ng/mL
How it was run: as §1

[15] = biological target: T1, recombinant human regenerating …; assay: sandwich ELISA; capture 11D11B11; REG1A 1.23 ng/mL
How it was run: as §1

[16] = biological target: T1, recombinant human regenerating …; assay: sandwich ELISA; capture 25F3C4; REG1A 33.33 ng/mL
How it was run: as §1

[17] = biological target: T1, recombinant human regenerating …; assay: sandwich ELISA; capture 11D11B11; REG1A 33.33 ng/mL
How it was run: as §1

[18] = biological target: T1, recombinant human regenerating …; assay: sandwich ELISA; capture 21B11D2; REG1A 1.23 ng/mL
How it was run: as §1

[19] = biological target: T1, recombinant human regenerating …; assay: sandwich ELISA; capture 4H8F1; REG1A 1.23 ng/mL
How it was run: as §1

[20] = biological target: T1, recombinant human regenerating …; assay: sandwich ELISA; capture 21B11D2; REG1A 11.11 ng/mL
How it was run: as §1

[21] = biological target: T1, recombinant human regenerating …; assay: sandwich ELISA; capture 25F3C4; REG1A 3.70 ng/mL
How it was run: as §1

[22] = biological target: T1, recombinant human regenerating …; assay: sandwich ELISA; capture 25F3C4; REG1A 11.11 ng/mL
How it was run: as §1

[23] = biological target: T1, recombinant human regenerating …; assay: sandwich ELISA; capture 12F12A10; REG1A 100.00 ng/mL
How it was run: as §1

[24] = biological target: T1, recombinant human regenerating …; assay: sandwich ELISA; capture 21B11D2; REG1A 100.00 ng/mL
How it was run: as §1

[25] = biological target: T1, recombinant human regenerating …; assay: sandwich ELISA; capture 21B11D2; REG1A 0 ng/mL (blank)
How it was run: as §1

[26] = biological target: T1, recombinant human regenerating …; assay: sandwich ELISA; capture 4H8F1; REG1A 33.33 ng/mL
How it was run: as §1

[27] = biological target: T1, recombinant human regenerating …; assay: sandwich ELISA; capture 4H8F1; REG1A 100.00 ng/mL
How it was run: as §1

[28] = biological target: T1, recombinant human regenerating …; assay: sandwich ELISA; capture 25F3C4; REG1A 1.23 ng/mL
How it was run: as §1

[29] = biological target: T1, recombinant human regenerating …; assay: sandwich ELISA; capture 25F3C4; REG1A 100.00 ng/mL
How it was run: as §1

[30] = biological target: T1, recombinant human regenerating …; assay: sandwich ELISA; capture 12F12A10; REG1A 3.70 ng/mL
How it was run: as §1

Binder	OD value [1] [OD]	OD value [2] [OD]	OD value [3] [OD]	OD value [4] [OD]	OD value [5] [OD]	OD value [6] [OD]	OD value [7] [OD]	OD value [8] [OD]	OD value [9] [OD]	OD value [10] [OD]	OD value [11] [OD]	OD value [12] [OD]	OD value [13] [OD]	OD value [14] [OD]	OD value [15] [OD]	OD value [16] [OD]	OD value [17] [OD]	OD value [18] [OD]	OD value [19] [OD]	OD value [20] [OD]	also measured
antibody 12F12A10 (antibody, V domains shown, Mouse monoclonal from hybridoma, stated mouse IgG1/Kappa; also called 12F12A10-biotin; Antibody 2) VH: QVQLQQSATELARPGASVKMSCKASGYTFTSYMMHWVKQRPGQGLEWIGYINPSSGYTDYNQKFKDKTTLTADKSSSTAYMQLSSLTSEDSAVYYCARYRYPHYFDYWGQGTTLTVSS VL: QIVLTQSPAIMSASPGEKVTMTCSASSSVSYIHWYQQKSGTSPKRWIYDTSKLASGVPARFSGSGSGTSYSLTISSMEAEDAAIYYCQQWSSNPPTFGAGTKLELKR	0.088	2.81	3.84	0.098	0.089	0.098	3.9	0.083	4.59	4.22	0.093	0.088	4.22	4.59	1.05	4.29	4.08	3.9	2.99	4.23	OD value [21]: 4.25 OD; OD value [22]: 4.37 OD; OD value [23]: 0.096 OD; OD value [24]: 4.65 OD; OD value [25]: 0.09 OD; OD value [26]: 4.33 OD; OD value [27]: 4.33 OD; OD value [28]: 3.76 OD; OD value [29]: 4.48 OD; OD value [30]: 0.088 OD
antibody 4H8F1 (antibody, V domains shown, Mouse monoclonal from hybridoma, stated mouse IgG1/Kappa; also called 4H8F1-biotin; Antibody 1) VH: QVTLKESGPGILQPSQTLSLTCSFSGFSLSTSGMSVGWIRQPSGKGLEWLAHIWWNDDKFYNPALKSRLTISKDTSKNQIFLKIASVVTADSATYYCARIEEGWFAYWGQGTLVTVST VL: SIVMTQTPKFLLVSVGDRVTITCKASQTMSNDVAWYQQKPGQSPKLLIYYASNRYTGVPDRFTGSGYGTDFTFTISTVQAEDLAVYFCQQDYSSPLTFGAGTKLELKR	3.05	2.87	0.079	3.27	0.068	1.3	3.87	1.21	0.077	0.081	0.076	0.074	4.24	0.078	1.37	0.085	4.48	0.078	0.074	0.073	OD value [21]: 0.082 OD; OD value [22]: 0.078 OD; OD value [23]: 3.18 OD; OD value [24]: 0.084 OD; OD value [25]: 0.075 OD; OD value [26]: 0.081 OD; OD value [27]: 0.09 OD; OD value [28]: 0.087 OD; OD value [29]: 0.086 OD; OD value [30]: 2.42 OD
antibody 11D11B11 (antibody, mouse IgG2a, kappa, V domains shown, Mouse monoclonal from hybridoma, stated mouse IgG1/Kappa; Used unlabelled as capture and biotin-labelled as detection antibody; also called 11D11B11-biotin) VH: DVKLVESGGGLVKPGGSLKLSCAASGFTFSSFSMSWFRQTPDKRLEWVATISSGGSSTYYPDSVKGRFTISRDNAKNTLYLQMTSLKSEDTAIFYCRGGYYGNYDPLDYWGQGTSVTVSA VL: DIVMIQSQKFMSTSVGDRVSITCTASHNVDSNVAWYQQKPGQSPQALIYSASYRYSGVPDRFTGSGSGTDFTLTINNVQSEDLAEYFCQQYNSYPLTFGGGTRLEIKR	2.69	0.066	3.74	3.03	0.075	0.934	0.072	0.079	0.069	4.1	0.074	0.21	0.064	0.077	0.066	0.083	0.064	0.089	2.46	0.077	OD value [21]: 0.076 OD; OD value [22]: 0.079 OD; OD value [23]: 3.15 OD; OD value [24]: 0.075 OD; OD value [25]: 0.074 OD; OD value [26]: 4.22 OD; OD value [27]: 4.24 OD; OD value [28]: 0.071 OD; OD value [29]: 0.089 OD; OD value [30]: 1.54 OD
